The chains are these.
T1: keto acyl synthase (KS) domain of FAS labeled with Flag at the N-terminal (UniProt P19096 1-406, limits assumed)
T1 construct: domain: keto acyl synthase (KS); Subcloned into pFLAG-CMV2 from the full-length FAS cDNA
T1 sequence (looked up): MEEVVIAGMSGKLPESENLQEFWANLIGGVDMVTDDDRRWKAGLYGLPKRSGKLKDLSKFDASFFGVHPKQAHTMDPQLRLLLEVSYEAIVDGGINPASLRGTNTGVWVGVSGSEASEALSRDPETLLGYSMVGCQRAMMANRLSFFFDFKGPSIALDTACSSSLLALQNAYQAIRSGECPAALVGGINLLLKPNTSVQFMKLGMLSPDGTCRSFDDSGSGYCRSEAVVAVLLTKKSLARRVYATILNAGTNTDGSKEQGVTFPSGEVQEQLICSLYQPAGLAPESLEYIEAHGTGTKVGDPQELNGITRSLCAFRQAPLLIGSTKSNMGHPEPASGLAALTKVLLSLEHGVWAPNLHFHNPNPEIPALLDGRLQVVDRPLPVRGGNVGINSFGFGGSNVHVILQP

T2: malonyl/acetyl transferase (MAT) domain of FAS labeled with Flag at the N-terminal (UniProt P19096 429-817, limits assumed)
T2 construct: domain: malonyl/acetyl transferase (MAT); Subcloned into pFLAG-CMV2 from the full-length FAS cDNA
T2 sequence (looked up): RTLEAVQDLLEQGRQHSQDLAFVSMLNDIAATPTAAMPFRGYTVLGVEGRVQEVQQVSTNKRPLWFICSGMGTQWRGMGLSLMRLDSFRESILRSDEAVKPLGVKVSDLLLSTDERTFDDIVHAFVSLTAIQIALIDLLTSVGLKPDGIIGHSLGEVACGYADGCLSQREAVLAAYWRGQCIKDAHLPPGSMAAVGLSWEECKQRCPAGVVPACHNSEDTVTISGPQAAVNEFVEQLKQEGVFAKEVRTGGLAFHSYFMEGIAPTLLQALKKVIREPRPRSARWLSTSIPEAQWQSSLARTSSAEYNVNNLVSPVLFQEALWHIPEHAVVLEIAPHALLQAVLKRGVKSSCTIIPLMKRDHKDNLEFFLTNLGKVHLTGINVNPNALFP

B1: recombinant AIM protein (rAIM) of mouse labeled with HA-tag (ligand)
chain: ESPTKVQLVGGAHRCEGRVEVEHNGQWGTVCDDGWDRRDVAVVCRELNCGAVIQTPRGASYQPPASEQRVLIQGVDCNGTEDTLAQCELNYYVFDCSHEEDAGAQCENPDSDLLFIPEDVRLVDGPGHCQGRVEVLHQSQWSTVCKAGWNLQVSKVVCRQLGCGRALLTYGSCNKNTQGKGPIWMGKMSCSGQEANLRSCLLSRLENNCTHGEDTWMECEDPFELKLVGGDTPCSGRLEVLHKGSWGSVCDDNWGEKEDQVVCKQLGCGKSLHPSPKTRKIYGPGAGRIWLDDVNCSGKEQSLEFCRHRLWGYHDCTHKEDVEVICTDFDV
notes: also called rAIM-HA; AIM-HA; not shown: HA-tag
B2: keto reductase (KR) domain of FAS labeled with Flag at the N-terminal (enzyme, UniProt P19096 1857-2111, looked up, not shown: small tags and cut ends)
chain: VLPGAQPTLISAISKTFCPAHKSYIITGGLGGFGLELARWLVLRGAQRLVLTSRSGIRTGYQAKHIREWRRQGIQVLVSTSNVSSLEGARALIAEATKLGPVGGVFNLAMVLRDAMLENQTPELFQDVNKPKYNGTLNLDRATREACPELDYFVAFSSVSCGRGNAGQTNYGFANSTMERICEQRRHDGLPGLAVQWGAIGDVGIVLEAMGTNDTVIGGTLPQRISSCMEVLDLFLNQPHAVLSSFVLAEKKAVA
notes: domain: keto reductase (KR); Subcloned into pFLAG-CMV2 from the full-length FAS cDNA
B3: acylcarrier protein (ACP) domain of FAS labeled with Flag at the N-terminal (enzyme, UniProt P19096 2112-2192, looked up, not shown: small tags and cut ends)
chain: HGDGDTQRDLVKAVAHILGIRDLAGINLDSTLADLGLDSLMGVEVRQILEREHDLVLPMREVRQLTLRKLQEMSSKTDSAT
notes: domain: acylcarrier protein (ACP); Subcloned into pFLAG-CMV2 from the full-length FAS cDNA

Common to all, as to experiment: co-immunoprecipitation of Flag-tagged FAS domains with AIM-HA in HEK293T cells
Assay [1] concerns the target T1, keto acyl synthase (KS) domain of FAS ….
Assay [2] addresses T2, malonyl/acetyl transferase (MAT) domain ….
Assay [3] has as its target B1.

For B1, the binding result in assay [1] and in assay [2] was “no binding” throughout.

For the molecule B2, the binding result in assay [3] is “no binding”. Take B3: the binding result in assay [3] is reported as “no binding”.

The values are drawn from US20130115220A1 (DAINIPPON SUMITOMO PHARMA, published 2013).
